By Ki is commonly meant the dissociation constant of the complex between target and ligand, obtained from inhibition or displacement. Lower therefore signals a stronger hold on the target.

Assay [1] has as its target human glucagon-like peptide-1 receptor (human) (UniProt P43220).
Assay [2] has the same target. In words: radioligand binding.

UniProt P43220, sequence (P43220 24-463): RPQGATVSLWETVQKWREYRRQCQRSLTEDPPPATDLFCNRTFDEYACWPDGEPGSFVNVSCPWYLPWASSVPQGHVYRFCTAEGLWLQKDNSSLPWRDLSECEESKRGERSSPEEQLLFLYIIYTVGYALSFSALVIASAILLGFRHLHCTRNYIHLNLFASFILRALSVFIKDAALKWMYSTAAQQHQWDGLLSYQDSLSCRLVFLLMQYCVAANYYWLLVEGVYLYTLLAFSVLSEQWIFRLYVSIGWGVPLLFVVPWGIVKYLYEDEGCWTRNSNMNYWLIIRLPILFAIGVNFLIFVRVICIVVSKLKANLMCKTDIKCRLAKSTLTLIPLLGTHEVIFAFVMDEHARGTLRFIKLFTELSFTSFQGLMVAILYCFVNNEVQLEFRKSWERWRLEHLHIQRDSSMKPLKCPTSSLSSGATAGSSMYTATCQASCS

Regarding “exenatide (from UniProt P26349 48-87) (peptide)”, the cAMP production, candidate selection (CS) CHO-GLP-1R cell line in assay [1] worked out at 0.11 nM. The substance also displayed an inhibition constant (Ki) in assay [2] of 0.092 nM.

Regarding liraglutide (peptide), the Ki in assay [2] was 4.4 nM.

For the origin of these results see paper doi:10.1101/2020.09.29.319483.
